Patent US20110162109A1 (BASF PLANT SCIENCE, published 2011)
Changes are numbered by the printed parent chain. Values belong to the binder of their own block, whether it stands above or below them.

Experiments:
[1] = target: T1, HUB1 (Histone Monoubiquitination 1), At2g44950, Arabidopsis thaliana (Arabidopsis thaliana, UniProt Q8RXD6 1-878); assay: TAP with N-terminally TAP-tagged HUB1, mass spectrometry; column To be confirmed (interacted only once)
T1 construct: Full length HUB1; In the TAP experiments N-terminally fused to the TAP tag or the GS-TAP tag; in yeast two-hybrid fused to AD (pDEST22) or BD (pDEST32); all these constructs are written under this one entry; also called HUB1fl; full length HUB1
T1 sequence: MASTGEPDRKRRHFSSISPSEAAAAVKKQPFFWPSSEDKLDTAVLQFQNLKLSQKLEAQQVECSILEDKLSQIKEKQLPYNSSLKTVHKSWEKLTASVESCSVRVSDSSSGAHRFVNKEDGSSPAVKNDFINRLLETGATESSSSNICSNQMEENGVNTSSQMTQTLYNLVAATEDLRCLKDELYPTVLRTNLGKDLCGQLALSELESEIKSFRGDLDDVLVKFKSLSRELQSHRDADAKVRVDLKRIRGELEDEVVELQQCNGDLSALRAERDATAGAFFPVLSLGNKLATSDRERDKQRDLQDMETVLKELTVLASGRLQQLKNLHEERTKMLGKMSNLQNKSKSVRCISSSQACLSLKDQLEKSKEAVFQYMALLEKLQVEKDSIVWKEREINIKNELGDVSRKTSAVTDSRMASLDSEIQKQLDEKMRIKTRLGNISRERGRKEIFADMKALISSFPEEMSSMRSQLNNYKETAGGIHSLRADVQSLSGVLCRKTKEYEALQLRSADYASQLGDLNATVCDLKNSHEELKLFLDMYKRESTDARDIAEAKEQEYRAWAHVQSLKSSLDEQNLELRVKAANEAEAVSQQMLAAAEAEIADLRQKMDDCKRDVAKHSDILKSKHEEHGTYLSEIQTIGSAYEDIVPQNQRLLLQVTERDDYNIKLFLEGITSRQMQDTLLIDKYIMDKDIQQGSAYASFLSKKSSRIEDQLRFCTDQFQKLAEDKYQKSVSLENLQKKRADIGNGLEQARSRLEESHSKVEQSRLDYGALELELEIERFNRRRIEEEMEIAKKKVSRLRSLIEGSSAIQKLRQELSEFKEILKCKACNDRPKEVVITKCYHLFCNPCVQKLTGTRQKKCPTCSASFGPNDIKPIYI
Experimental: (§1) Because the RING proteins have their functionally important domain at the C-terminus, an N-terminal fusion was prepared instead of the traditional C-terminal fusion by cloning both full length and the point mutant form of HUB1 (HUB1pm, HUB1fl). The Arabidopsis cell cultures were transformed with the two constructs and cultivated on 10 litre scale, harvested and purified by TAP (Van Leene et al., Mol. Cell. Proteomics 6, 1226-38, 2007). The protein extracts were separated on 1-D SDS-PAGE gels and isolated from gel for protein identification by mass spectrometry (Laukens et al., Proteomics. 4, 720-7, 2004, Van Leene et al., 2007). Two cut offs were used resulting in “confirmed” and “to be confirmed” candidate interactor lists (Table I).
(§2) In the data set of confirmed interactors TAP HUB1 and HUB2 were present, […] the dimer formation between the homologues. In addition, the acetyltransferase GCN5, RNA binding proteins and a KH domain protein were identified as HUB1 interacting proteins. Most of these proteins are known to be localized in nucleus or nucleoli. GFP constructs of HUB1 have also been localized to nucleus (Liu et al., 2007). When HUB1pm was used for TAP purification no HUB2 could be identified as an interacting protein.

LUG/RON2, At4G32551 = target: T2, LUG/RON2, At4G32551 (Arabidopsis thaliana, UniProt Q9FUY2 1-931); assay: yeast two-hybrid
T2 construct: Endogenous prey in TAP; fusion protein in yeast two-hybrid
T2 sequence (looked up): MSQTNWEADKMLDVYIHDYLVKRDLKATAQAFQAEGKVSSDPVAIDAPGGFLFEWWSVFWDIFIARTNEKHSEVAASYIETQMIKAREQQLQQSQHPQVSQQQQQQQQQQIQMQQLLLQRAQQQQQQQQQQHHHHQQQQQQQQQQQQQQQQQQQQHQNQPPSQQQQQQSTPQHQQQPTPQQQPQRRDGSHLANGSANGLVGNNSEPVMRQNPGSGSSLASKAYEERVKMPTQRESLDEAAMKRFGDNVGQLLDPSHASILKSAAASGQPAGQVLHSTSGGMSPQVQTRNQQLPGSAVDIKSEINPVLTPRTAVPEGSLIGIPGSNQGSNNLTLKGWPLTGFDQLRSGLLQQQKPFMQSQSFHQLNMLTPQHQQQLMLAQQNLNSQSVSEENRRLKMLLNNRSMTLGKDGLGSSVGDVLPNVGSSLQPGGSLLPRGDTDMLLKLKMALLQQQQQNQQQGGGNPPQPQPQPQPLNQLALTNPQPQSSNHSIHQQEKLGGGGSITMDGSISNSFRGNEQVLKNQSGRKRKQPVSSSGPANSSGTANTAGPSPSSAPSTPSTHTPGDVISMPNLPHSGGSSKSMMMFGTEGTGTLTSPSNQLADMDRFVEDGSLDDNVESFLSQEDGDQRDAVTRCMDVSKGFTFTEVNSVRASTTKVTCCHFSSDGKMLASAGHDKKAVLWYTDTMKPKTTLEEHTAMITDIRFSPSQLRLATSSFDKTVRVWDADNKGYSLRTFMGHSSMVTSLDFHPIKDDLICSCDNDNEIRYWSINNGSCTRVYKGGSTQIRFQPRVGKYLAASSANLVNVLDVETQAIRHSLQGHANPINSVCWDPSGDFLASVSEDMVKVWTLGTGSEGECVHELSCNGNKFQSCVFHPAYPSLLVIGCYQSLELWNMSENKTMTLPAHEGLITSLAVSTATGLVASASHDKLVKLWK

[2] = target: UBC2, At2g02760 (Arabidopsis thaliana) (UniProt P42745); assay: GS-TAP purification + MALDI-TOF-TOF MS, bait UBC2 (second block, as the rows stand); expectance is the MS identification score
UBC2, At2g02760 (Arabidopsis thaliana), sequence (P42745 whole entry): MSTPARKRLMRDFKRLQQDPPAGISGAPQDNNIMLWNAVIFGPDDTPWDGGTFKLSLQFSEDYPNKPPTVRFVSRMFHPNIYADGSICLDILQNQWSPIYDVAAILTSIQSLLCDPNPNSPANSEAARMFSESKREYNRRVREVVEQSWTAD

[3] = target: T3, HUB2, At1g55250, Arabidopsis thaliana (Arabidopsis thaliana, UniProt Q9C895 1-900); assay: tandem affinity purification with NTAP-tagged HUB1pm
T3 construct: As prey the endogenous protein of Arabidopsis cell culture; as bait N-terminal GS-TAP fusion; in yeast two-hybrid an AD fusion; also called AAG51572.1
T3 sequence: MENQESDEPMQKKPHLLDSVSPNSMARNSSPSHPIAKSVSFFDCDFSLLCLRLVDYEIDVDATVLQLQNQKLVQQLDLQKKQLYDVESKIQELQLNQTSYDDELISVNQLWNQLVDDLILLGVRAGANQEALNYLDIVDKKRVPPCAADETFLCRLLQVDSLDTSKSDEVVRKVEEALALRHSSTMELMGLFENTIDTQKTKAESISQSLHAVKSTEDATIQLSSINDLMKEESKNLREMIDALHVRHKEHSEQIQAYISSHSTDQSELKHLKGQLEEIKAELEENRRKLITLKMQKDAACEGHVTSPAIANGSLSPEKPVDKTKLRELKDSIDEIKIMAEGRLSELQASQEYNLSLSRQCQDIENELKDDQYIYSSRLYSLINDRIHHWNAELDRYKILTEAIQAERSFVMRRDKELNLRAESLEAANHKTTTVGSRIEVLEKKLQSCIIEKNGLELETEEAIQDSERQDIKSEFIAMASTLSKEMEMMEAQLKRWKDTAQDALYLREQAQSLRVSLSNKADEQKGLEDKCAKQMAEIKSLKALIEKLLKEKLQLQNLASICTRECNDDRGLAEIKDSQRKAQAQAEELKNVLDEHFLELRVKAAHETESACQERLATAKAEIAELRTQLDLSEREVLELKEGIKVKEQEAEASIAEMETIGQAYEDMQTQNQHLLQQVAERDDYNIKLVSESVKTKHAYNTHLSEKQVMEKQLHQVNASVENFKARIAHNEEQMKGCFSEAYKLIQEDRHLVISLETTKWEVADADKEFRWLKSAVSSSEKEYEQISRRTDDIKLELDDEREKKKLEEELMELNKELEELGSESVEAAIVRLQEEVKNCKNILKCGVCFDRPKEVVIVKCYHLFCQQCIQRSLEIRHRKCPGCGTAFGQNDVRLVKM
Experimental: as §1, §2

binding result [1]: binds
binding result (LUG/RON2, At4G32551): binds
Expectance [2]: 1e-24
B1: SEUSS, At1g43850 (other, Arabidopsis thaliana, UniProt Q8W234 1-877, looked up)
chain: MVPSEPPNPVGGGENVPPSILGGQGGAPLPSQPAFPSLVSPRTQFGNNMSMSMLGNAPNISSLLNNQSFVNGIPGSMISMDTSGAESDPMSNVGFSGLSSFNASSMVSPRSSGQVQGQQFSNVSANQLLAEQQRNKKMETQSFQHGQQQSMQQQFSTVRGGGLAGVGPVKMEPGQVSNDQQHGQVQQQQQKMLRNLGSVKLEPQQIQAMRNLAQVKMEPQHSEQSLFLQQQQRQQQQQQQQQFLQMPGQSPQAQMNIFQQQRLMQLQQQQLLKSMPQQRPQLPQQFQQQNLPLRPPLKPVYEPGMGAQRLTQYMYRQQHRPEDNNIEFWRKFVAEYFAPNAKKRWCVSMYGSGRQTTGVFPQDVWHCEICNRKPGRGFEATAEVLPRLFKIKYESGTLEELLYVDMPRESQNSSGQIVLEYAKATQESVFEHLRVVRDGQLRIVFSPDLKIFSWEFCARRHEELIPRRLLIPQVSQLGSAAQKYQQAAQNATTDSALPELQNNCNMFVASARQLAKALEVPLVNDLGYTKRYVRCLQISEVVNSMKDLIDYSRETRTGPIESLAKFPRRTGPSSALPGPSPQQASDQLRQQQQQQQQQQQQQQQQQQQQQQQQTVSQNTNSDQSSRQVALMQGNPSNGVNYAFNAASASTSTSSIAGLIHQNSMKGRHQNAAYNPPNSPYGGNSVQMQSPSSSGTMVPSSSQQQHNLPTFQSPTSSSNNNNPSQNGIPSVNHMGSTNSPAMQQAGEVDGNESSSVQKILNEILMNNQAHNNSSGGSMVGHGSFGNDGKGQANVNSSGVLLMNGQVNNNNNTNIGGAGGFGGGIGQSMAANGINNINGNNSLMNGRVGMMVRDPNGQQDLGNQLLGAVNGFNNFDWNA
notes: As prey endogenous; as bait N-terminal GS-TAP fusion; in yeast two-hybrid an AD fusion

binding result [3]: no binding
B2: HUB1pm (HUB1 point mutant, Cys residues nr 1 and 2 of the C3HC4 RING domain changed into Ser) (enzyme)
chain: T1 sequence with C826S, C829S
notes: In TAP N-terminally TAP-tagged; also called HUBpm; At2g44950 Arabidopsis thaliana point mutation
monoubiquitination of histone H2B in the in vitro ubiquitination assay (protein gel blot) (histone H2B): shift of H2B by 10 kDa
